Earlier results as cited in PMC7768499.
pKd: −log10 of the molar value.

Tests used:
[1] = target: IgA1 (Homo sapiens) (UniProt P01876)
[2] = target: IgA2 (Homo sapiens) (UniProt P01877)
[3] = target: IgA (Homo sapiens) (UniProt P01876)
IgA (Homo sapiens), sequence (P01876 whole entry): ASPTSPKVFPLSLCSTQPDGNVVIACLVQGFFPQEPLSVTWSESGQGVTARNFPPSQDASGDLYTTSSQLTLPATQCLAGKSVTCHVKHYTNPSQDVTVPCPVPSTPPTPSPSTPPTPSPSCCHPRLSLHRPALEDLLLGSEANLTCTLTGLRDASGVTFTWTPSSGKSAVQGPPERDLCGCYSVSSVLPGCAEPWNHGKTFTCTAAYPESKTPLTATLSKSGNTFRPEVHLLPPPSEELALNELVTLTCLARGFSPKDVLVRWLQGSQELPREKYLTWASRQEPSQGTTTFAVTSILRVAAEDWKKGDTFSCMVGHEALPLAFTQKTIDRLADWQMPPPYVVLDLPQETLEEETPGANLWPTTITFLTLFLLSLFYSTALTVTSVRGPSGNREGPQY

FcαRI, sequence (P24071 22-287): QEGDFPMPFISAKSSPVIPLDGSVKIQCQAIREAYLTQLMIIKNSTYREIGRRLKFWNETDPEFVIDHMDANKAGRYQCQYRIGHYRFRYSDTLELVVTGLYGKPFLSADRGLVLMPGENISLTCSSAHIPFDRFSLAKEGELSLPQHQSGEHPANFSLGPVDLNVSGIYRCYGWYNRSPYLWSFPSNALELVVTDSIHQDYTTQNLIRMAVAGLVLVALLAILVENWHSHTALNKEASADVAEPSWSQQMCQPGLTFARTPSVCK
IgA2 (Homo sapiens), sequence (P01877 whole entry): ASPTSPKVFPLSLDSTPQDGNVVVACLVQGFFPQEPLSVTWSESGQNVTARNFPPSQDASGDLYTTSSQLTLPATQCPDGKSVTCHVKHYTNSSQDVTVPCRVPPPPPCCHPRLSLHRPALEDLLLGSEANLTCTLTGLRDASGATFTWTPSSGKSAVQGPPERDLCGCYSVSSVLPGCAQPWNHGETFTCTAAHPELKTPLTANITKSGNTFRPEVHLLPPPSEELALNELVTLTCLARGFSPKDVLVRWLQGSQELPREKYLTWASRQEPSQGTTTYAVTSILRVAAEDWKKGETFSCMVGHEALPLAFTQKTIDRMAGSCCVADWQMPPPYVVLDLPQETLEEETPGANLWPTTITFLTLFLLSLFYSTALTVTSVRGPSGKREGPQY
IgA1 (Homo sapiens), sequence (P01876 whole entry): as the sequence (P01876 whole entry) above

In the case of FcαRI (from UniProt P24071), the pKd [1] is given as 6.81, the pKd [2] is given as 7.70 and the pKd [3] is given as 7.70.
